This is an account of results in patent US20140072563A1 (Regeneron, published 2014).

For experiment [1], the target named is T1, hErbB3.mmh (soluble monomeric human ErbB3 extracellular domain with C-terminal myc-myc-hexahistidine tag) (human, UniProt P21860 20-642). Put plainly: SPR (Biacore), 25 C, mAb capture format. On the procedure:
(§1) (Tables 2-4). Measurements were conducted on a Biacore 2000 or T100 instrument. […] Kinetic association (kₐ) and dissociation (kd) rate constants were determined by processing and fitting the data to a 1:1 binding model using Scrubber 2.0 curve fitting software.
(SPR reads the build-up and loss of mass on a sensor chip optically.)

Experiment [2] deals with T2, hErbB3.mFc (soluble dimeric human ErbB3 extracellular domain fused to mouse Fc) (human).
T2 construct: called dimeric
T2 chain: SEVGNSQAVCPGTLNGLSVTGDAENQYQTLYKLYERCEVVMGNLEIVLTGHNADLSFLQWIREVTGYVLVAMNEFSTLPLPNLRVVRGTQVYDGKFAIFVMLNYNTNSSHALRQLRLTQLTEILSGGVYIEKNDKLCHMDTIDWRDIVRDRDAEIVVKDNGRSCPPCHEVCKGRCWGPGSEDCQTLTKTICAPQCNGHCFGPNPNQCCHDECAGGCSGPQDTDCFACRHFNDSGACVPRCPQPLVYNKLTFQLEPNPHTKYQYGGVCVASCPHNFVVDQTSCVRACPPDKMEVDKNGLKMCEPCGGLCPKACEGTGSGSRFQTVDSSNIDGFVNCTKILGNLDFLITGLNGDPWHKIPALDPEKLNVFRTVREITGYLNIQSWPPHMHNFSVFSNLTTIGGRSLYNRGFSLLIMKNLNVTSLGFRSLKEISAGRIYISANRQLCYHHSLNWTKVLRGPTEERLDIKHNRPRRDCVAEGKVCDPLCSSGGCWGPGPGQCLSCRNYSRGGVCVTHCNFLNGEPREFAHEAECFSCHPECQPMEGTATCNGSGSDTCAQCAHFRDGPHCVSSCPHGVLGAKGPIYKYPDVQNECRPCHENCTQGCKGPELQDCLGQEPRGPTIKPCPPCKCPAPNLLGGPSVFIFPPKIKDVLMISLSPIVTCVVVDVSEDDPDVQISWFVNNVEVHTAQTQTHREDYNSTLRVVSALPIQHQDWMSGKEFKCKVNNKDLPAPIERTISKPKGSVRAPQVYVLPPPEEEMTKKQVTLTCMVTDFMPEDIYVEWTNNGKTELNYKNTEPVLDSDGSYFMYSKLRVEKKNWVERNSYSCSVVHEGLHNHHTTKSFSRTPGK
Put plainly: SPR (Biacore), 25 C, mAb capture format. Here is the method:
as §1

Experiment [3] deals with T1, hErbB3.mmh (soluble monomeric human …). In words: SPR (Biacore), 37 C, mAb capture format. On the procedure:
as §1

In experiment [4] the target is T2, hErbB3.mFc (soluble dimeric human ErbB3 …). Put plainly: SPR (Biacore), 37 C, mAb capture format. On the procedure:
as §1

B1: H4H1821N (antibody, V domains shown)
VH: EVQLVESGGGLVQPGRSLRLSCAASGFTFDDYAMHWVRQAPGKGLEWVSSISWNSGSIGYADSVKGRFTISRDNAKNSLYLQMNSLKPEDTALYYCTKDTDYGDYLDAFDIWGQGTMVAVAS
VL: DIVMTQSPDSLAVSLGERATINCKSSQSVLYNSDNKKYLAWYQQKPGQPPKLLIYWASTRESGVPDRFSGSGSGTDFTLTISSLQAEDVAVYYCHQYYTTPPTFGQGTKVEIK
notes: Human IgG4 Fc (H4H prefix); same variable domains as H2M1821N
One may read the Kd as a measure of binding affinity in units of concentration. Low values mean higher affinity, high ones lower affinity. By koff is commonly meant the rate constant with which the complex falls apart. As usually defined, the kon is a measure of how fast the partners come together. Lower therefore signals slower complex formation. As for B1, in experiment [1], the Kd turned out to be 0.051 nM, the T½ is 1 h, the koff was 0.000192 s⁻¹ and the kon turned out to be 3.8e+06 M⁻¹ s⁻¹. In experiment [2], this molecule gave a Kd of 0.000355 nM, a T½ of 44.4 h, a koff of 4.33e-06 s⁻¹ and a kon of 1.22e+07 M⁻¹ s⁻¹. In experiment [3], binding was put at a Kd of 0.167 nM, the T½ is 0.183 h, the koff is 0.00108 s⁻¹ and the kon amounted to 6.49e+06 M⁻¹ s⁻¹. Further, in experiment [4], the Kd came to 0.00189 nM, the T½ stood at 5.43 h, the koff was 3.55e-05 s⁻¹ and the kon came to 1.87e+07 M⁻¹ s⁻¹.

B2: H4H1819N (antibody, V domains shown)
VH: EVQLVESGGGVVRPGGSLRLSCAASGFTFDDYAMHWVRQAPGKGLEWVAGISWNSGSIDYADSVKGRFTISRDNAKNSLYLQMNSLRAGDTALYYCAKDILDLDYYGLDVWGQGTTVTVSS
VL: DIQMTQSPSSLSASVGDRVTITCRASQDISSYLAWYQQKPGKVPNLLIYDASSLQSGVPSRFSGSGSGTDFTLTLSSLQPEDFASYYCQNYNSAPYTFGQGTKLEIK
notes: Human IgG4 Fc (H4H prefix); same variable domains as H1M1819N
In experiment [1], B2 gave a Kd of 0.0435 nM, a T½ of 0.55 h, a koff of 0.000351 s⁻¹ and a kon of 8.1e+06 M⁻¹ s⁻¹. Further, in experiment [2], binding was characterised by a dissociation constant (Kd) of 0.000943 nM, the T½ stood at 12.5 h, the koff is 1.54e-05 s⁻¹ and the kon stood at 1.64e+07 M⁻¹ s⁻¹. In experiment [3], this molecule showed a Kd of 0.129 nM, a T½ of 0.117 h, a koff of 0.00156 s⁻¹ and a kon of 1.21e+07 M⁻¹ s⁻¹. Moreover, in experiment [4], the Kd was 0.00153 nM, the T½ was found to be 3.43 h, the koff was determined as 5.62e-05 s⁻¹ and the kon worked out at 3.68e+07 M⁻¹ s⁻¹.
